Data as given in US20240327500A1.

Molecular target: HBV virions (Genotype D) (Hepatitis B virus genotype D)
Assay: cell-based or functional assay

HBC34 (antibody)
neutralization at 0.03 µg/ml, in-vitro assay: 29%
